Source: patent US20180134794A1
Like-named read-outs stand apart in the source and are kept apart here.

Columns and labels:
[1] = biological target: human MET (c-Met, HGFR) endogenously expressed on cell lines (human) (UniProt P08581)
[2] = biological target: human MET (c-Met, HGFR) endogenously expressed on cell lines (human) (UniProt P08581); remark: listed apart in the source

human MET (c-Met, HGFR) endogenously expressed on cell lines (human), sequence (P08581 25-1390): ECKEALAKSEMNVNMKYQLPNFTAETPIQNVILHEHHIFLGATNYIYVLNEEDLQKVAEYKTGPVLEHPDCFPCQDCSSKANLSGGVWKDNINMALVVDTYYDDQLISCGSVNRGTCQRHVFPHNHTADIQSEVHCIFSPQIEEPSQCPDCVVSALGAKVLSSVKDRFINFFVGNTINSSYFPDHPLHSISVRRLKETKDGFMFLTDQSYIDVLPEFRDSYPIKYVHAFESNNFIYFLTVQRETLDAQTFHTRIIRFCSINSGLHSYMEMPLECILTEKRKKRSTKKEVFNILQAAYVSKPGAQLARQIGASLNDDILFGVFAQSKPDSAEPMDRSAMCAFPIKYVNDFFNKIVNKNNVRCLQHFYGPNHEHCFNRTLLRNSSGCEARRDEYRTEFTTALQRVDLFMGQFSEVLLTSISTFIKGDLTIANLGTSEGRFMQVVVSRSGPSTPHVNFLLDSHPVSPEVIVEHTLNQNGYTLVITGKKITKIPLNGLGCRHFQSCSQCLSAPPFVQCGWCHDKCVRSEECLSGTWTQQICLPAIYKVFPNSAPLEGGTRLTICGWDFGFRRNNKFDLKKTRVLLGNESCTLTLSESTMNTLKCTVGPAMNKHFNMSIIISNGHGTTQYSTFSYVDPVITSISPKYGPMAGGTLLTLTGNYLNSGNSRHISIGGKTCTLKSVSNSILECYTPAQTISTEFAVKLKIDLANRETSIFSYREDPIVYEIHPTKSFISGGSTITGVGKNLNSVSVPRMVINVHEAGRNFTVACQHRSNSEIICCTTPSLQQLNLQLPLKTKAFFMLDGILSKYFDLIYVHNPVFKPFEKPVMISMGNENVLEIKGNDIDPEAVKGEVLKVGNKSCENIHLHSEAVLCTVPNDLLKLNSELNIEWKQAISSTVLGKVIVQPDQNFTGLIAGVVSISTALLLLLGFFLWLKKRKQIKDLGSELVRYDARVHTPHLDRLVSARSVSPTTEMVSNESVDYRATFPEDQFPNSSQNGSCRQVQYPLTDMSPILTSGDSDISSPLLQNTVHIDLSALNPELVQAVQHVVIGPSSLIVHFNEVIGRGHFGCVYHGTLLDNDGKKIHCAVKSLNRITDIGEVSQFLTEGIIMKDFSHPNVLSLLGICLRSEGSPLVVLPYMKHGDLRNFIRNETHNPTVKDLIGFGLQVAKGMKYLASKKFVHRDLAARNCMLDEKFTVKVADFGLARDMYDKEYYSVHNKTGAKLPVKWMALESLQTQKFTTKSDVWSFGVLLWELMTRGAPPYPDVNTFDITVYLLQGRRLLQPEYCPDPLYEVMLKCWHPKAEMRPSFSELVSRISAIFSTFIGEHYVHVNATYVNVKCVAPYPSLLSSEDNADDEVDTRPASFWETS

monovalent anti-MET antibody (heavy and light chain variable sequences of MetMab)
IC50 (read off the curve), inhibition of HGF-induced SRE-luciferase signal [1]: 400 pM
IC50 (read off the curve), inhibition of HGF-induced SRE-luciferase signal [2]: 60 pM
